B1: IgG2-Fc-(GGGGS)3-HM-3 (protein)
chain: VECPPCPAPPVAGPSVFLFPPKPKDTLMISRTPEVTCVVVDVSHEDPEVQFNWYVDGVEVHNAKTKPREEQFNSTFRVVSVLTVVHQDWLNGKEYKCKVSNKGLPAPIEKTISKTKGQPREPQVYTLPPSREEMTKNQVSLTCLVKGFYPSDISVEWESNGQPENNYKTTPPMLDSDGSFFLYSKLTVDKSRWQQGNVFSCSVMHEALHNHYTQKSLSLSPGKGGGGSGGGGSGGGGSIVRRADRAAVPGGGGRGD

Tests used:
[1] = test system: transgenic blood vessel fluorescent zebrafish; test: In vivo anti-angiogenesis in zebrafish (SIVs area); parameters: area of SIVs: unit not given here; conditions: 500 ng/tail, 24 h
human macrophage U937 = test: TNF-α production by LPS-induced human macrophage U937 (ELISA); format: cell-based; conditions: 9 μM; LPS 1 μg/mL, 48 h; negative group 77.6±19.6
Experimental: Experimental method: Human macrophage U937 was cultured in RPMI-1640 medium containing 10% fetal bovine serum and double antibodies in a constant temperature incubator at 37° C. under the condition of 5% CO2, and the medium was replaced every 2 days. U937 cells in the logarithmic phase were collected, resuspended and adjusted to the concentration of 5×10^5/mL. 100 μL of cells was added to each well of a 96-well plate overnight and induced with LPS (1 μg/mL) in the following day, where n=3. At the same time, the cells were treated with agents, and respectively divided into a positive control group adalimumab, an HM-3 polypeptide group, an mPEG-SC-HM-3 polypeptide group, an HM-3 fusion protein (TSL-1, TSL-2, TSL-3, TSL-4) group, and the specific dosing scheme was shown in Table 5.
48 h after the agents worked, culture medium was collected and centrifuged, and supernatant was taken to measure the content of TNF-α therein by ELISA. Test results were expressed as mean±SD, and statistical T test was performed. *P<0.05 indicates significant difference, **P<0.01 indicates extremely significant difference. Based upon the results, the efficacy of the HM-3 fusion protein against rheumatoid arthritis was screened.

[2] = test system: mice splenic lymphocyte proliferation stimulated by ConA; format: cell-based
Experimental: Experimental method: mice orbit was by bloodletting to death, and immediately immersed in 75% ethanol for 5-10 min, and then the spleen was removed on a clean bench and placed in PBS. The spleen was placed on a sterile cell strainer (200 mesh) and ground with a syringe nozzle; during grinding process, PBS was added continuously; the slurry was collected and centrifuged (1000 rpm for 5 min), then cells were washed 3 times with Tris-ammonium chloride solution, and washed again with a medium, and then re-suspended in the medium. Finally, trypan blue living cell staining was performed on the cells, and the survival rate was more than 95%. The concentration of viable cells was adjusted to 2×10^6/mL. […] was added to each well of a 96-well plate, meanwhile, ConA (concanavalin to simulate splenocyte proliferation) and drugs were added to each well. Six duplicates were set in each group.
The 96-well plate was incubated for 48 h in a 5% CO2 incubator at 37° C. 5 mg/mL of MTT was added to the 96-well plate, 20 μL for each well, and then it was incubated continuously for 4 h in the incubator. The culture medium in the 96-well plate was discarded and 100 μL DMSO was added to each well and mixed gently. Absorbance was measured by a microplate reader at the wavelength of 570 nm and reference wavelength of 630 nm.
Proliferation inhibition rate (PI) was calculated according to formula:
[formula] wherein, Atest is the absorbance of dosing group, and Acontrol is the absorbance of negative control. Test results were expressed as mean±SD, and statistical T test was performed. *P<0.05 indicates significant difference, **P<0.01 indicates extremely significant difference. Based upon the results, the efficacy of the fusion protein against rheumatoid arthritis was screened.
In the P4 control group, TSL-4 fusion protein served as a control agent.

[3] = test system: transgenic blood vessel fluorescent zebrafish; test: In vivo anti-angiogenesis in zebrafish (SIVs area); parameters: area of SIVs: unit not given here; conditions: for inhibition rate of angiogenesis / area of SIVs: 24 h; for area of SIVs: normal control group 53193
Experimental: Experimental method: transgenic blood vessel fluorescent zebrafish was randomly selected and put into a six-well plate with 30 fish per well, and intravenously injected HM-3 polypeptide, TSL-1 fusion protein, TSL-2 fusion protein, TSL-3 fusion protein and TSL-4 fusion protein respectively in accordance with the dosage of 20 ng/tail and 66 ng/tail; the dosage was […] in Avastin positive control and the injection volume was 20 nL/tail; the zebrafish injected 20 nL/tail of buffer solution served as a solvent control group, and the zebrafish without any treatment served as a normal control group. 10 pieces of zebrafish were randomly selected from each group after processed for 24 h to observe the intestinal vessels of the transgenic zebrafish by a fluorescence microscope, as well as to take and maintain images. Image analysis was performed by Nikon MS-Elements D 3.10 to calculate the area (S) of SIVs (subintestinal vessel, SIV). The calculation formula of angiogenesis inhibition rate was as follows: Angiogenesis inhibition rate (%)=(1−S(Test sample group)/S(Normal control group))×100%
Statistical analysis was performed by variance analysis and Dunnett's T-test and the results were expressed as Mean±SD, where p<0.05 indicates a significant difference.

Molecule	inhibition rate of angiogenesis [1] [%]	area of SIVs ([1]; normal control group 53193)	TNF-α content in cell supernatant (human macrophage U937) [pg/mL]	optimal (best) inhibition rate of splenic lymphocyte proliferation ([2]; ConA 5 μg/mL, 48 h, MTT, best of the tested concentrations) [%]	inhibition rate compared with the positive control group ([2]; positive group Dexamethasone 50 μmol/L)	inhibiting effect on angiogenesis ([3]; 20 ng/tail)	inhibition rate of angiogenesis ([3]; 20 ng/tail iv) [%]	area of SIVs ([3]; 20 ng/tail iv)	inhibition rate of angiogenesis ([3]; 66 ng/tail iv) [%]	area of SIVs ([3]; 66 ng/tail iv)
Avastin: positive control in the zebrafish angiogenesis test	29	37853								
B1			38.6 ± 12.9	61.4	higher than that of the positive control group	significant inhibitory effect	23	40705	27	38660

From US11655308B2, “HM-3 fusion protein and application thereof” (TASLY BIOPHARMACEUTICALS CO., LTD., priority 2017, dated 2023)
